The record followed here is publication PMC5055751 (Nature chemical biology, 2016).

The subject of the data set is mouse embryonic fibroblasts (MEFs). Nature of the data set: Cellular uptake of FITC-peptides by ImageXpress high-content microscopy. The note with it: MEFs 2×10^4 cells, 0% FBS, dose varied; text 2 hours, legend 4 hr.

In the case of “BIM BH3_1: unmodified template peptide FITC-BIM BH3_1 (aa 146–166)”, the “TIFI versus FITC-peptide dose, result in words” value is “linear, dose-responsive increase in TIFI”.
